Reference: patent US20200399712A1, “COMPOSITIONS AND METHODS FOR THE DIAGNOSIS AND DETECTION OF TUMORS AND CANCER PROGNOSIS” (priority 2018, published 2020)

What was measured:
[1] = tested on: E2, E4, E5 expression head and neck cell line; test: Growth of E2, E4, E5 expressing head and neck cell line with FGFR inhibitor; assay type: cell-based
HPV-16 genome = test: qPCR sensitivity against HPV-16 copy number (known-copy HPV-16 DNA among 10 ng normal human DNA); details: for reaction under 30 copies of HPV-16 genome: among 10 ng normal DNA, triplicate qPCR
HPV-16 [2] = test: qPCR on 20 ng DNA from saliva samples of HPV-HNSCC patients
HPV16 DNA [3] = test: CLIA test for HPV16, performance characteristics in plasma
Text: (§1) These primer/probe sets were adapted for development of a CLIA test for HPV16 DNA detection in plasma and salivary rinses (Table 2). Test performance was improved, so that analytical sensitivity in salivary rinse spike in assays ranges from 2.5-5.0 DNA copies/mL with 100% specificity for the three primer/probe sets that are now part of the component assay, resulting in a five-fold improvement in analytic sensitivity that is in the range of sensitivity found in sequence based liquid biopsy methods (FIG. 23, Table 2). Additionally, the assays can be used quantitatively, with measuring ranges between 2.0 log10-7.0 log10 copies/mL.

HPV16 DNA [4] = test: CLIA test for HPV16, performance characteristics in salivary rinse
Text: as §1

HPV DNA = test: CLIA HPV test pilot study on saliva rinse samples from HPV-positive HNSCC patients and non-cancer controls; set-up: species or system HPV16; HPV16 DNA measured by CLIA HPV test: unit not given here
Procedure: As a final validation, Applicants a small pilot study was performed on a blinded set of saliva rinse samples from 28 patients with HPV-positive HNSCC and 15 salivary rinses from non-cancer controls. […] The sensitivity increased to 96% when all three sets were used (Table 3).

HPV-16 [5] = test: qPCR sensitivity against HPV-HNSCC tumor samples diluted among 10 ng normal human DNA
Procedure: Quantitative real-time polymerase chain reaction (qRT-PCR) was used to examine the threshold in each experiment. qRT-PCR was performed using Quant Studio 6 Flex Real-Time PCR System (Thermo Fisher Scientific). All samples were run in triplicates. HPV-16 viral amplicon copy number estimations were developed using the CaSki cell line. After amplification of the amplicon by PCR, DNA concentration was calculated by weight NanoDrop®, then converted to DNA copy number by calculation based on the molecular weight of the double stranded amplicon. […] In the other 32 HPV-HNSCC cohort, Applicants diluted the tumor sample to 990 pg, 198 pg, 99 pg, 39.6 pg, 7.9 pg, 3.2 pg, and 1.6 pg of amount tumor weight, (correspond to 150, 30, 15, 6, 1.2, 0.6, and 0.3 cells: assumption that 1 tumor cell have 6.6 pg DNA (=3*10^9 (human DNA genome bp)*2 (diploid)*1.67*10^(−24) g (weight/Dalton))) combined with 10 ng normal leukocyte human DNA and compare the threshold of each primer-probe sets.
In this regard, Applicants investigated the other 32 HPV-HNSCC tumor samples. From the assumption that 1 cell tumor DNA contain 6.6 pg DNA, Applicants made the dilution series by DNA derived from normal lymphocyte as described and decide the threshold for each primer-probe set.
Furthermore, to determine whether these designed primer/probe sets also have a high sensitivity in a separate cohort, Applicants performed PCR in a validation cohort of 32 additional primary tumor samples with validated presence of HPV-16. Applicants prepared serial of dilutions of tumor DNA in normal lymphocyte DNA from non-cancer individuals and determined the threshold for each primer/probe set and defined amplification thresholds expressed in number of tumor cells for each sample (Table 5).

[6] = samples tested 3 times, 10 ng DNA from healthy individual
[7] = first template ('... HPV16', word is an image)
[8] = second template (name is an image)
[9] = tumor DNA dilution, fraction of 32 samples

AZD4547
growth effect induced by E2, E4, E5 [1]: reversed the growth effect induced by E2, E4, E5

B1: HR E5L2-4: primer/probe set for junction between E5 and L2, SEQ ID NO: 55-57 (same as SEQ ID NO: 4-6) (nucleic acid)
DNA 1: GCAAAACGCACAAAACGTGC
DNA 2: GACATGTACCTGCCTGTTTGC
DNA 3: CGGCTACCCAACTTTATAAAACA
modifications: chemistry not given here
reaction under 30 copies of HPV-16 genome (HPV-16 genome): consistently amplified | reaction under 30 copies of HPV-16 genome (HPV-16 genome; listed as Max-10): react consistently | number of reactions against 10 HPV-16 copies (HPV-16 genome; [6]): one | number of reactions under 30 HPV-16 copies (HPV-16 genome; [6]): 3 reactions | sensitivity of detection from saliva 20 ng DNA samples (HPV-16 [2]; 28 HPV-HNSCC saliva samples): 46.4% | copy numbers detected (standard curve analysis) (HPV-16 [2]; compared among 4 primer-probe sets): highest | Accuracy - Plasma Blind Panel, Negative % Agreement (HPV16 DNA [3]): 100% | Accuracy - Plasma Blind Panel, Positive % Agreement (HPV16 DNA [3]): 100% | Accuracy - Plasma Blind Panel, Total % Agreement (HPV16 DNA [3]): 100% | Measuring Range - Plasma (HPV16 DNA [3]; first template ('... HPV16')): 2.0-8.5 log10 log10 copies/mL | Limit of Detection - Plasma (HPV16 DNA [3]; [7]): 1.5 copies/mL | Limit of Detection - Plasma (HPV16 DNA [3]; [8]): 20 copies/mL | Measuring Range - Plasma (HPV16 DNA [3]; [8]): 2.0-6.5 log10 log10 copies/mL | Measuring Range - Salivary Rinse (HPV16 DNA [4]; first template ('... HPV16')): 2.0-8.5log10 log10 copies/mL | Limit of Detection - Salivary rinse (HPV16 DNA [4]; [7]): 2 copies/mL | Limit of Detection - Salivary rinse (HPV16 DNA [4]; [8]): 19 copies/mL | Measuring Range - Salivary Rinse (HPV16 DNA [4]; [8]): 2.0-6.5 log10 log10 copies/mL | sensitivity for the detection of HPV DNA in saliva rinse samples (HPV DNA; 28 patients with HPV-positive HNSCC): 71% | HPV16 DNA measured by CLIA HPV test (HPV DNA; saliva sample from HPV-HNSCC patient # 1): 322000 | HPV16 DNA measured by CLIA HPV test (HPV DNA; saliva sample from HPV-HNSCC patient # 2): 52500 | HPV16 DNA measured by CLIA HPV test (HPV DNA; saliva sample from HPV-HNSCC patient # 3): 25800 | HPV16 DNA measured by CLIA HPV test (HPV DNA; saliva sample from HPV-HNSCC patient # 4): 33200 | HPV16 DNA measured by CLIA HPV test (HPV DNA; saliva sample from HPV-HNSCC patient # 7): 9670 | HPV16 DNA measured by CLIA HPV test (HPV DNA; saliva sample from HPV-HNSCC patient # 8): 2510 | HPV16 DNA measured by CLIA HPV test (HPV DNA; saliva sample from HPV-HNSCC patient # 9): 1590 | HPV16 DNA measured by CLIA HPV test (HPV DNA; saliva sample from HPV-HNSCC patient # 12): 86.7 | HPV16 DNA measured by CLIA HPV test (HPV DNA; saliva sample from HPV-HNSCC patient # 13): 53.1 | HPV16 DNA measured by CLIA HPV test (HPV DNA; saliva sample from HPV-HNSCC patient # 14): 31.1 | HPV16 DNA measured by CLIA HPV test (HPV DNA; saliva sample from HPV-HNSCC patient # 15): 49.7 | HPV16 DNA measured by CLIA HPV test (HPV DNA; saliva sample from HPV-HNSCC patient # 16): 41.3 | HPV16 DNA measured by CLIA HPV test (HPV DNA; saliva sample from HPV-HNSCC patient # 17): 15.8 | HPV16 DNA measured by CLIA HPV test (HPV DNA; saliva sample from HPV-HNSCC patient # 18): 2.61 | HPV16 DNA measured by CLIA HPV test (HPV DNA; saliva sample from HPV-HNSCC patient # 19): 26.9 | HPV16 DNA measured by CLIA HPV test (HPV DNA; saliva sample from HPV-HNSCC patient # 20): 13.4 | HPV16 DNA measured by CLIA HPV test (HPV DNA; saliva sample from HPV-HNSCC patient # 21): 6.54 | HPV16 DNA measured by CLIA HPV test (HPV DNA; saliva sample from HPV-HNSCC patient # 22): 1.16 | HPV16 DNA measured by CLIA HPV test (HPV DNA; saliva sample from HPV-HNSCC patient # 26): 2.15 | HPV16 DNA measured by CLIA HPV test (HPV DNA; saliva sample from HPV-HNSCC patient # 27): 1.19 | sensitivity under 100 cells (HPV-16 [5]; 32 HPV-HNSCC tumor samples): 93.8% | sensitivity under single cells (HPV-16 [5]; 32 HPV-HNSCC tumor samples, 6.6 pg DNA): 15.6% | sensitivity under 10 cells (HPV-16 [5]; 32 HPV-HNSCC tumor samples, 66 pg DNA): 50.0% | Threshold of tumor cell numbers for HPV-16 detection (HPV-16 [5]; Sample # 1): 30.0 tumor cells | Threshold of tumor cell numbers for HPV-16 detection (HPV-16 [5]; Sample # 2): 30.0 tumor cells | Threshold of tumor cell numbers for HPV-16 detection (HPV-16 [5]; Sample # 3): 150.0 tumor cells | Threshold of tumor cell numbers for HPV-16 detection (HPV-16 [5]; Sample # 4): 60.0 tumor cells | Threshold of tumor cell numbers for HPV-16 detection (HPV-16 [5]; Sample # 5): 150.0 tumor cells | Threshold of tumor cell numbers for HPV-16 detection (HPV-16 [5]; Sample # 6): 30.0 tumor cells | Threshold of tumor cell numbers for HPV-16 detection (HPV-16 [5]; Sample # 7): 30.0 tumor cells | Threshold of tumor cell numbers for HPV-16 detection (HPV-16 [5]; Sample # 8): 15.0 tumor cells | Threshold of tumor cell numbers for HPV-16 detection (HPV-16 [5]; Sample # 9): 30.0 tumor cells | Threshold of tumor cell numbers for HPV-16 detection (HPV-16 [5]; Sample # 10): 30.0 tumor cells | Threshold of tumor cell numbers for HPV-16 detection (HPV-16 [5]; Sample # 11): 6.0 tumor cells | Threshold of tumor cell numbers for HPV-16 detection (HPV-16 [5]; Sample # 12): 30.0 tumor cells | Threshold of tumor cell numbers for HPV-16 detection (HPV-16 [5]; Sample # 13): 30.0 tumor cells | Threshold of tumor cell numbers for HPV-16 detection (HPV-16 [5]; Sample # 14): 30.0 tumor cells | Threshold of tumor cell numbers for HPV-16 detection (HPV-16 [5]; Sample # 15): 30.0 tumor cells | Threshold of tumor cell numbers for HPV-16 detection (HPV-16 [5]; Sample # 16): 6.0 tumor cells | Threshold of tumor cell numbers for HPV-16 detection (HPV-16 [5]; Sample # 17): 6.0 tumor cells | Threshold of tumor cell numbers for HPV-16 detection (HPV-16 [5]; Sample # 18): 6.0 tumor cells | Threshold of tumor cell numbers for HPV-16 detection (HPV-16 [5]; Sample # 19): 1.2 tumor cells | Threshold of tumor cell numbers for HPV-16 detection (HPV-16 [5]; Sample # 20): 1.2 tumor cells | Threshold of tumor cell numbers for HPV-16 detection (HPV-16 [5]; Sample # 21): 6.0 tumor cells | Threshold of tumor cell numbers for HPV-16 detection (HPV-16 [5]; Sample # 22): 0.3 tumor cells | Threshold of tumor cell numbers for HPV-16 detection (HPV-16 [5]; Sample # 23): 1.2 tumor cells | Threshold of tumor cell numbers for HPV-16 detection (HPV-16 [5]; Sample # 24): 1.2 tumor cells | Threshold of tumor cell numbers for HPV-16 detection (HPV-16 [5]; Sample # 25): 0.6 tumor cells | Threshold of tumor cell numbers for HPV-16 detection (HPV-16 [5]; Sample # 26): 0.6 tumor cells | Threshold of tumor cell numbers for HPV-16 detection (HPV-16 [5]; Sample # 27): 0.6 tumor cells | Threshold of tumor cell numbers for HPV-16 detection (HPV-16 [5]; Sample # 28): 1.0 tumor cells | Threshold of tumor cell numbers for HPV-16 detection (HPV-16 [5]; Sample # 29): 3.0 tumor cells | Threshold of tumor cell numbers for HPV-16 detection (HPV-16 [5]; Sample # 30): 30.0 tumor cells | Threshold of tumor cell numbers for HPV-16 detection (HPV-16 [5]; Sample # 31): 0.6 tumor cells | Threshold of tumor cell numbers for HPV-16 detection (HPV-16 [5]; Sample # 32): 30.0 tumor cells | Sensitivity, 1 cell (HPV-16 [5]; [9]): 0.156 | Sensitivity, 3 cells (HPV-16 [5]; [9]): 0.313 | Sensitivity, 10 cells (HPV-16 [5]; [9]): 0.500 | Sensitivity, 30 cells (HPV-16 [5]; [9]): 0.844 | Sensitivity, 100 cells (HPV-16 [5]; [9]): 0.938
